Laboratory results: patent US20110039780A1 (Pfizer, published 2011)
Numbering of substitutions follows the chain as printed. Names and notes keep the numbering of the source. One block for each binder: values may come before it.

What was measured:
α-thrombin [1] = target: T1, α-thrombin (UniProt P00734 328-363; P00734 364-622); experiment: Biacore assay
Method: (§1) The binding abilities of GPIbα-290/2V-Ig and GPIbα-290-2V/FFF-Ig to vWF and a-thrombin were evaluated in vitro using a Biacore assay.

[2] = target: T2, intact von Willebrand factor (UniProt P04275 764-2813, limits assumed); experiment: SPR (BiaCore); non-sulfated isoform
T2 construct: also called vWF; intact vWF

[3] = target: T2, intact von Willebrand factor; experiment: SPR (BiaCore); 0 sulfated (unsulfated)
vWF A1 domain [4] = target: T3, vWF A1 domain (UniProt P04275 1261-1468, limits assumed); experiment: binding constant; method not stated in Example 3
T3 construct: domain: A1; also called vWF A1 fragment

[5] = target: T2, intact von Willebrand factor; experiment: binding constant; method not stated in Example 3
vWF A1 domain [6] = target: T3, vWF A1 domain; experiment: Biacore assay
Method: as §1

vWF A1 domain [7] = target: T3, vWF A1 domain; experiment: Biacore assay; remark: listed apart in the source
α-thrombin [8] = target: T1, α-thrombin; experiment: SPR (BiaCore)
[9] = target: T2, intact von Willebrand factor; experiment: SPR (BiaCore); fully sulfated isoform
[10] = target: T2, intact von Willebrand factor; experiment: SPR (BiaCore); 6 sulfated (fully sulfated)

Kd (α-thrombin [1]): 760 nM
B1: GPIbα-IgG1Fc fusion protein with a wild-type human GPIbα sequence (Fc fusion)
chain: HPICEVSKVASHLEVNCDKRNLTALPPDLPKDTTILHLSENLLYTFSLATLMPYTRLTQLNLDRCELTKLQVDGTLPVLGTLDLSHNQLQSLPLLGQTLPALTVLDVSFNRLTSLPLGALRGLGELQELYLKGNELKTLPPGLLTPTPKLEKLSLANNNLTELPAGLLNGLENLDTLLLQENSLYTIPKGFFGSHLLPFAFLHGNPWLCNCEILYFRRWLQDNAENVYVWKQGVDVKAMTSNVASVQCDNSDKFPVYKYPGKGCPTLGDEGDTDLYDYYPEEDTEGDKVR
modifications: tyrosines 276, 278, 279 can be sulfated; sulfation state of the tested material not stated
notes: Made in CHO cells; dimerized forms were isolated; also called WT; GPIb-Ig WT; not shown: IgG1 Fc

Kd [2]: 284 nM
Kd [3]: 113 to 521 nM
B2: GPIbα-IgG1Fc fusion protein 1V (M239V), non-sulfated isoform (Fc fusion)
chain: B1 chain with M239V
modifications: tyrosines 276, 278, 279 not sulfated (sulfation state 0)
notes: also called 1V 0 sulfated; GP Ibα-Ig239V unsulfated isoform; not shown: IgG1 Fc

Ka (vWF A1 domain [4]): 1.5e+09 M⁻¹
Ka [5]: 1.7e+09 M⁻¹
B3: GPIbα fusion protein variant 3V (G233V K237V M239V) (Fc fusion, not shown: large carriers)
chain: B1 chain with G233V, K237V, M239V

Ka (vWF A1 domain [4]): 9.1e+07 M⁻¹
Ka [5]: 2.4e+08 M⁻¹
Kd (vWF A1 domain [6]): 15.4 nM
Kd (α-thrombin [1]): 35800 nM
fold decrease in binding against GPIb-290/2V-Ig (vWF A1 domain [7]): ~3 fold
B4: GPIb-290/2V/FFF-Ig (GPIb-290/2V-Ig with Tyr-276, 278, 279 changed to phenylalanine) (Fc fusion)
chain: B1 chain with G233V, M239V, Y276F, Y278F, Y279F
notes: Non-sulfated chimera; also called GPIbα-290/2V/FFF-Ig; GPIbα-290-2V/FFF-Ig; not shown: human IgG1 Fc domain

Ka [5]: 7.7e+07 M⁻¹
B5: GPIbα-IgG1Fc fusion protein with the M239V (1V) substitution (Fc fusion)
chain: B1 chain with M239V
modifications: tyrosines 276, 278, 279 can be sulfated; sulfation state not stated
notes: also called GP Ibα-Ig239V; not shown: IgG1 Fc

Ka (vWF A1 domain [4]): 1.9e+08 M⁻¹
Ka [5]: 5.6e+08 M⁻¹
Kd (vWF A1 domain [6]): 5 nM
Kd (α-thrombin [1]): 630 nM
B6: GPIb-290/2V-Ig (N-terminal 290 amino acids of GPIbα with G233V M239V fused to a human IgG1 Fc domain) (Fc fusion)
chain: B1 chain with G233V, M239V
modifications: sulfated tyrosines at 276, 278, 279 (extent not stated)
notes: also called GPIb2V-Ig; GP Ib-Ig2V; not shown: human IgG1 Fc domain

Kd [2]: 12 nM
Kd [3]: 3.4 to 15 nM
B7: GPIbα-IgG1Fc fusion protein 2V (G233V M239V), non-sulfated isoform (Fc fusion)
chain: B1 chain with G233V, M239V
modifications: tyrosines 276, 278, 279 not sulfated (sulfation state 0)
notes: also called 2V 0 sulfated; GP Ib-Ig2V unsulfated isoform; not shown: IgG1 Fc

fold higher binding affinity than the unsulfated isoform (α-thrombin [8]): ~80 fold
Kd [9]: 119 nM
Kd [10]: 113 to 521 nM
B8: GPIbα-IgG1Fc fusion protein 1V (M239V), fully sulfated isoform (Fc fusion)
chain: B1 chain with M239V
modifications: sulfotyrosine at 276, 278 and 279 (fully sulfated: sulfation state 6 per dimer)
notes: also called 1V 6 sulfated; GP Ibα-Ig239V fully sulfated isoform; not shown: IgG1 Fc

Ka (vWF A1 domain [4]): 1.5e+09 M⁻¹
Ka [5]: 1.7e+09 M⁻¹
B9: GPIbα fusion protein variant 3V/C65S (Fc fusion, not shown: large carriers)
chain: B1 chain with C65S, G233V, K237V, M239V
notes: also called 3V/C-S

fold higher binding affinity than the unsulfated isoform (α-thrombin [8]): ~80 fold
Kd [9]: 4 nM
Kd [10]: 3.4 to 15 nM
B10: GPIbα-IgG1Fc fusion protein 2V (G233V M239V), fully sulfated isoform (Fc fusion)
chain: B1 chain with G233V, M239V
modifications: sulfotyrosine at 276, 278 and 279 (fully sulfated: sulfation state 6 per dimer)
notes: also called 2V 6 sulfated; GP Ib-Ig2V fully sulfated isoform; not shown: IgG1 Fc
